Laboratory results reported in patent US11833164B2, “Methods of treating Fabry disease in patients having a mutation in the GLA gene” (Amicus Therapeutics, Inc., priority 2019, dated 2023).

System: mutant form of α-Gal A expressed in HEK-293 cells
Test: HEK assay (GLP HEK / Migalastat Amenability Assay): α-Gal A activity in lysates of transiently transfected HEK-293 cells incubated with or without 10 μM migalastat
Type: cell-based, human
Settings: for Absolute increase (% WT) / Relative increase: 10 μM migalastat versus baseline; for Baseline α-Gal A activity (% WT): absence of migalastat; for Baseline α-Gal A activity (% WT) / 10 μM migalastat α-Gal A activity (% WT): percentage of baseline wild-type α-Gal A activity; for Baseline α-Gal A activity (% WT) / Baseline α-Gal A activity / 10 μM migalastat α-Gal A activity / 10 μM migalastat α-Gal A activity (% WT): mean ± SEM; for Baseline α-Gal A activity / 10 μM migalastat α-Gal A activity: lysates of HEK-293 cells transiently transfected with the mutant form; for Baseline α-Gal A activity: incubated 5 days in absence of migalastat; for 10 μM migalastat α-Gal A activity: incubated 5 days with 10 μM migalastat; for 10 μM migalastat α-Gal A activity (% WT): with 10 μM migalastat, 5 days
Procedure, shortened: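 Activity reported as 4-MU released (nmol/mg/hr), mean±SEM, from lysates of transiently transfected HEK-293 cells expressing mutant α-Gal A, cultured with or without 10 μM migalastat.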

| Molecule | Absolute increase (% WT) | Relative increase | Baseline α-Gal A activity (% WT) | Baseline α-Gal A activity | 10 μM migalastat α-Gal A activity | 10 μM migalastat α-Gal A activity (% WT) |
| --- | --- | --- | --- | --- | --- | --- |
| G334V (protein) MQLRNPELHLGCALALRFLALVSWDIPGARALDNGLARTPTMGWLHWERFMCNLDCQEEPDSCISEKLFMEMAELMVSEGWKDAGYEYLCIDDCWMAPQRDSEGRLQADPQRFPHGIRQLANYVHSKGLKLGIYADVGNKTCAGFPGSFGYYDIDAQTFADWGVDLLKFDGCYCDSLENLADGYKHMSLALNRTGRSIVYSCEWPLYMWPFQKPNYTEIRQYCNHWRNFADIDDSWKSIKSILDWTSFNQERIVDVAGPGGWNDPDMLVIGNFGLSWNQQVTQMALWAIMAAPLFMSNDLRHISPQAKALLQDKDVIAINQDPLGKQGYQLRQVDNFEVWERPLSGLAWAVAMINRQEIGGPRSYTIAVASLGKGVACNPACFITQLLPVKRKLGFYEWTSRLRSHINPTGTVLLQLENTMQMSLKDLL | 13.7 % WT | 1.2 | 68.4 ± 3.2 % WT | 31991 ± 2390 nmol/mg/h | 38301 ± 2744 nmol/mg/h | 82.1 ± 3.8 % WT |
| N336D (protein) MQLRNPELHLGCALALRFLALVSWDIPGARALDNGLARTPTMGWLHWERFMCNLDCQEEPDSCISEKLFMEMAELMVSEGWKDAGYEYLCIDDCWMAPQRDSEGRLQADPQRFPHGIRQLANYVHSKGLKLGIYADVGNKTCAGFPGSFGYYDIDAQTFADWGVDLLKFDGCYCDSLENLADGYKHMSLALNRTGRSIVYSCEWPLYMWPFQKPNYTEIRQYCNHWRNFADIDDSWKSIKSILDWTSFNQERIVDVAGPGGWNDPDMLVIGNFGLSWNQQVTQMALWAIMAAPLFMSNDLRHISPQAKALLQDKDVIAINQDPLGKQGYQLRQGDDFEVWERPLSGLAWAVAMINRQEIGGPRSYTIAVASLGKGVACNPACFITQLLPVKRKLGFYEWTSRLRSHINPTGTVLLQLENTMQMSLKDLL | 34.3 % WT | 1.7 | 53.7 ± 2.8 % WT | 23869 ± 1072 nmol/mg/h | 39534 ± 2519 nmol/mg/h | 88.1 ± 4.9 % WT |
| D335A (protein) MQLRNPELHLGCALALRFLALVSWDIPGARALDNGLARTPTMGWLHWERFMCNLDCQEEPDSCISEKLFMEMAELMVSEGWKDAGYEYLCIDDCWMAPQRDSEGRLQADPQRFPHGIRQLANYVHSKGLKLGIYADVGNKTCAGFPGSFGYYDIDAQTFADWGVDLLKFDGCYCDSLENLADGYKHMSLALNRTGRSIVYSCEWPLYMWPFQKPNYTEIRQYCNHWRNFADIDDSWKSIKSILDWTSFNQERIVDVAGPGGWNDPDMLVIGNFGLSWNQQVTQMALWAIMAAPLFMSNDLRHISPQAKALLQDKDVIAINQDPLGKQGYQLRQGANFEVWERPLSGLAWAVAMINRQEIGGPRSYTIAVASLGKGVACNPACFITQLLPVKRKLGFYEWTSRLRSHINPTGTVLLQLENTMQMSLKDLL | 27.7 % WT | 1.6 | 57.9 ± 3 % WT | 21055 ± 1662 nmol/mg/h | 33829 ± 4641 nmol/mg/h | 85.6 ± 6.9 % WT |
| D335G (protein) MQLRNPELHLGCALALRFLALVSWDIPGARALDNGLARTPTMGWLHWERFMCNLDCQEEPDSCISEKLFMEMAELMVSEGWKDAGYEYLCIDDCWMAPQRDSEGRLQADPQRFPHGIRQLANYVHSKGLKLGIYADVGNKTCAGFPGSFGYYDIDAQTFADWGVDLLKFDGCYCDSLENLADGYKHMSLALNRTGRSIVYSCEWPLYMWPFQKPNYTEIRQYCNHWRNFADIDDSWKSIKSILDWTSFNQERIVDVAGPGGWNDPDMLVIGNFGLSWNQQVTQMALWAIMAAPLFMSNDLRHISPQAKALLQDKDVIAINQDPLGKQGYQLRQGGNFEVWERPLSGLAWAVAMINRQEIGGPRSYTIAVASLGKGVACNPACFITQLLPVKRKLGFYEWTSRLRSHINPTGTVLLQLENTMQMSLKDLL | 15.7 % WT | 1.3 | 51.3 ± 2.8 % WT | 22766 ± 1355 nmol/mg/h | 30341 ± 3325 nmol/mg/h | 67 ± 5.6 % WT |
| D335E (protein) MQLRNPELHLGCALALRFLALVSWDIPGARALDNGLARTPTMGWLHWERFMCNLDCQEEPDSCISEKLFMEMAELMVSEGWKDAGYEYLCIDDCWMAPQRDSEGRLQADPQRFPHGIRQLANYVHSKGLKLGIYADVGNKTCAGFPGSFGYYDIDAQTFADWGVDLLKFDGCYCDSLENLADGYKHMSLALNRTGRSIVYSCEWPLYMWPFQKPNYTEIRQYCNHWRNFADIDDSWKSIKSILDWTSFNQERIVDVAGPGGWNDPDMLVIGNFGLSWNQQVTQMALWAIMAAPLFMSNDLRHISPQAKALLQDKDVIAINQDPLGKQGYQLRQGENFEVWERPLSGLAWAVAMINRQEIGGPRSYTIAVASLGKGVACNPACFITQLLPVKRKLGFYEWTSRLRSHINPTGTVLLQLENTMQMSLKDLL | 17.7 % WT | 1.3 | 68.7 ± 4.8 % WT | 30532 ± 1962 nmol/mg/h | 39124 ± 2722 nmol/mg/h | 86.5 ± 4.5 % WT |
| D335Y (protein) MQLRNPELHLGCALALRFLALVSWDIPGARALDNGLARTPTMGWLHWERFMCNLDCQEEPDSCISEKLFMEMAELMVSEGWKDAGYEYLCIDDCWMAPQRDSEGRLQADPQRFPHGIRQLANYVHSKGLKLGIYADVGNKTCAGFPGSFGYYDIDAQTFADWGVDLLKFDGCYCDSLENLADGYKHMSLALNRTGRSIVYSCEWPLYMWPFQKPNYTEIRQYCNHWRNFADIDDSWKSIKSILDWTSFNQERIVDVAGPGGWNDPDMLVIGNFGLSWNQQVTQMALWAIMAAPLFMSNDLRHISPQAKALLQDKDVIAINQDPLGKQGYQLRQGYNFEVWERPLSGLAWAVAMINRQEIGGPRSYTIAVASLGKGVACNPACFITQLLPVKRKLGFYEWTSRLRSHINPTGTVLLQLENTMQMSLKDLL | 11.0 % WT | 1.3 | 43 ± 1.7 % WT | 19469 ± 982 nmol/mg/h | 24732 ± 2214 nmol/mg/h | 54.1 ± 3.5 % WT |
| N336I (protein) MQLRNPELHLGCALALRFLALVSWDIPGARALDNGLARTPTMGWLHWERFMCNLDCQEEPDSCISEKLFMEMAELMVSEGWKDAGYEYLCIDDCWMAPQRDSEGRLQADPQRFPHGIRQLANYVHSKGLKLGIYADVGNKTCAGFPGSFGYYDIDAQTFADWGVDLLKFDGCYCDSLENLADGYKHMSLALNRTGRSIVYSCEWPLYMWPFQKPNYTEIRQYCNHWRNFADIDDSWKSIKSILDWTSFNQERIVDVAGPGGWNDPDMLVIGNFGLSWNQQVTQMALWAIMAAPLFMSNDLRHISPQAKALLQDKDVIAINQDPLGKQGYQLRQGDIFEVWERPLSGLAWAVAMINRQEIGGPRSYTIAVASLGKGVACNPACFITQLLPVKRKLGFYEWTSRLRSHINPTGTVLLQLENTMQMSLKDLL | 23.0 % WT | 2.1 | 20.7 ± 2.7 % WT | 8544 ± 1083 nmol/mg/h | 18303 ± 1404 nmol/mg/h | 43.8 ± 1.6 % WT |
| D335V (protein) MQLRNPELHLGCALALRFLALVSWDIPGARALDNGLARTPTMGWLHWERFMCNLDCQEEPDSCISEKLFMEMAELMVSEGWKDAGYEYLCIDDCWMAPQRDSEGRLQADPQRFPHGIRQLANYVHSKGLKLGIYADVGNKTCAGFPGSFGYYDIDAQTFADWGVDLLKFDGCYCDSLENLADGYKHMSLALNRTGRSIVYSCEWPLYMWPFQKPNYTEIRQYCNHWRNFADIDDSWKSIKSILDWTSFNQERIVDVAGPGGWNDPDMLVIGNFGLSWNQQVTQMALWAIMAAPLFMSNDLRHISPQAKALLQDKDVIAINQDPLGKQGYQLRQGVNFEVWERPLSGLAWAVAMINRQEIGGPRSYTIAVASLGKGVACNPACFITQLLPVKRKLGFYEWTSRLRSHINPTGTVLLQLENTMQMSLKDLL | 19.4 % WT | 2.1 | 18.1 ± 0.6 % WT | 7938 ± 336 nmol/mg/h | 16557 ± 929 nmol/mg/h | 37.5 ± 1.6 % WT |
